From patent US20120316071A1 (published 2012)

Legend:
[1] = target: T1, Recombinant Human DLL4 (delta-like protein 4) (human, UniProt Q9NR61 27-529); assay: ELISA on coated DLL4, 100 nM Fab
T1 construct: Bought recombinant human DLL4 (R&D Systems Cat#1506-D4/CF), coated on the plate; also called rHuman DLL4; Delta-like 4

[2] = target: T1, Recombinant Human DLL4 (delta-like …); assay: 96-well plate ECL (MSD) binding assay on coated DLL4, 10 nM Fab

B1: Fab VH1-46_IGHD6-6*01_IGHJ1*01 S102A/S103P/S104F/H111F/I51S/N52L/S54T/G56H (APFF SLTH) & L6_IGKJ1*01 (Fab, V domains shown)
VH: QVQLVQSGAEVKKPGASVKVSCKASGYTFTSYYMHWVRQAPGQGLEWMGISLPTGHSTSYAQKFQGRVTMTRDTSTSTVYMELSSLRSEDTAVYYCAREEYAPFSAEYFQFWGQGTLVTVSS
VL: not shown
notes: Fab made in E. coli; CH1 with tags and kappa CL are not included
- ELISA signal [1]: 0.786
- ECL signal [2]: 135000
